B1: 30 (protein)
chain: MADLYENPMGLMGFEFIEFASPTPGTLEPIFEIMGFTKVATHRSKNVHLYRQGEINLILNNEPNSIASYFAAEHGPSVCGMAFRVKDSQKAYNRALELGAQPIHIDTGPMELNLPAIKGIGGAPLYLIDRFGEGSSIYDIDFVYLEGVERNPVGAGLKVIDHLTHNVYRGRMVYWANFYEKLFNFREARYFDIKGEYTGLTSKAMSAPDGMIRIPLNEESSKGAGQIEEFLMQFNGEGIQHVAFLTDDLVKTWDALKKIGMRFMTAPSDSYYEMLEGRLPDHGEPVDQLQARGILLDGSSVEGDKRLLLQIFSETLMGPVFFEFIQRKGDDGFGPHSFKVLFESKERDQVRRGVLTAD
modifications: mutant HPPD polypeptide
B2: 67 (protein)
chain: B1 chain with M264K, S268G, S270E, H336D, K345V
modifications: mutant HPPD polypeptide
B3: 87 (protein)
chain: B1 chain with S268G, S270E, H336D, K345A
modifications: mutant HPPD polypeptide
B4: 39 (protein)
chain: B1 chain with A204L, S268G, S270E, H336D, K345V
modifications: mutant HPPD polypeptide
B5: 72 (protein)
chain: B1 chain with S268R, S270E, H336D, K345V
modifications: mutant HPPD polypeptide
B6: 86 (protein)
chain: B1 chain with S268G, S270E, H336D, V340Q, K345V
modifications: mutant HPPD polypeptide
B7: 40 (protein)
chain: B1 chain with A204M, S268G, S270E, H336D, K345V
modifications: mutant HPPD polypeptide
B8: 59 (protein)
chain: B1 chain with S268G, S270E, H336D, S344R, K345V
modifications: mutant HPPD polypeptide
B9: 44 (protein)
chain: B1 chain with R213L, S268G, S270E, H336D, K345V
modifications: mutant HPPD polypeptide
B10: 10 (protein)
chain: B1 chain with S268P, S270T, H336D, K345V
modifications: mutant HPPD polypeptide
B11: 89 (protein)
chain: B1 chain with S268G, S270E, H336D
modifications: mutant HPPD polypeptide
B12: 7 (protein)
chain: B1 chain with S268P, S270T, H336D, V340A, K345I
modifications: mutant HPPD polypeptide
B13: 88 (protein)
chain: B1 chain with S268G, S270E, H336D, K345I
modifications: mutant HPPD polypeptide
B14: 92 (protein)
chain: B1 chain with M264R, S268G, S270E, D330H, H336D, K345A
modifications: mutant HPPD polypeptide

Positions count from the first letter of the chain named.

For the first series, the system named is E. coli cells expressing an HPPD polypeptide. The series is described as follows: Brown color bioassay in liquid culture, residual brown color formation (BCF), OD440 after 96 hours. In kind it is cell-based. The conditions noted are these: brown color formation in absence of Cmpd. 1, culture supernatant after 96 hours, 5 mM HPP. As to the method:
In an additional experiment, mutant HPPD polypeptides were analyzed using the principle of a colorimetric brown color assay (as, for example, described in U.S. Pat. No. 6,768,044). Bacterial cells expressing the HPPD polypeptides according to this invention were assayed in 96 well plate format (Nunc® 96 DeepWell™ plate, Sigma-Aldrich, St. Louis, USA) for HPPD polypeptides with improved HPPD inhibitor herbicide tolerance.
E. coli cells were grown in liquid LB medium (Carl Roth GmbH+Co. KG, Karlsruhe, Germany) containing the selection agent for the expression vector pSE420(RI)NX (WO2014/043435) and 5 mM para-hydroxyphenylpyruvate (HPP; Sigma-Aldrich, St. Louis, USA), in the presence of absence of the HPPD inhibitor herbicide e.g. Cmpd. 1 (1000 μM). An overnight culture of E. coli culture expressing one of the respective HPPD polypeptides according to this invention were adjusted to an OD600 of 0.3-0.5 in a final volume of 500 μL and incubated at 30 degree Celsius. Residual brown color formation was determined by measuring the brown color formation (BCF) in the presence and absence of Cmpd. […] Therefore, after 96 hours the culture was centrifuged and the supernatant of the culture was used to measure the optical density of the soluble brown pigment formation at 440 nm (OD440 nm).
On to B1, for which the “Control BCF OD440nm” value is recorded as 1.70.

Turning to B2, the “Control BCF OD440nm” value is 1.93.

Consider B3, for which the “Control BCF OD440nm” value was determined as 1.91.

Take B4: the “Control BCF OD440nm” value is listed as 1.63.

As for B5, the “Control BCF OD440nm” value is 2.77.

B6: the “Control BCF OD440nm” value amounted to 1.94.

As for B7, the “Control BCF OD440nm” value came out at 1.89.

For the molecule B8, the “Control BCF OD440nm” value is listed as 1.29.

Take B9: the “Control BCF OD440nm” value came to 1.60.

Consider B10, for which the “Control BCF OD440nm” value was found to be 1.09.

Regarding B11, the “Control BCF OD440nm” value stood at 2.36.

For B12, the “Control BCF OD440nm” value came out at 1.83.

Regarding B13, the “Control BCF OD440nm” value came to 2.21.

In the case of B14, the “Control BCF OD440nm” value is 1.38.

Still in this series, the particulars now being: brown color formation with Cmpd. 1 (1000 μM) relative to without, after 96 hours.
Take B1: the “Residual BCF OD440nm [%]” value came out at 56%.

For the molecule B2, the “Residual BCF OD440nm [%]” value amounted to 71%.

With B3, the “Residual BCF OD440nm [%]” value is on record as 68%.

Take B4: the “Residual BCF OD440nm [%]” value is given as 55%.

In the case of B5, the “Residual BCF OD440nm [%]” value was determined as 72%.

With B6, the “Residual BCF OD440nm [%]” value was found to be 74%.

For B7, the “Residual BCF OD440nm [%]” value was found to be 58%.

As to B8, the “Residual BCF OD440nm [%]” value is reported as 51%.

As for B9, the “Residual BCF OD440nm [%]” value was found to be 40%.

Consider B10, for which the “Residual BCF OD440nm [%]” value is given as 65%.

In the case of B11, the “Residual BCF OD440nm [%]” value came to 67%.

Consider B12, for which the “Residual BCF OD440nm [%]” value worked out at 40%.

Take B13: the “Residual BCF OD440nm [%]” value worked out at 77%.

Take B14: the “Residual BCF OD440nm [%]” value stood at 59%.

The subject of a further series is HPPD polypeptides (wild-type SEQ ID NO:1 and mutants).
Test: not given
The settings on record: in the presence of Cmpd. 1, 15 μM inhibitor, high substrate concentration; kapp normalized to kapp without inhibitor. Here is the method: For the generation of crude HPPD polypeptide extract in micro titer plates (MTP) for the determination of residual activity in inhibition assays, cells were grown in 40 or 150 μl LB medium containing 1% Glucose (Merck, Darmstadt, Germany) and 100 μg/ml ampicillin in a standard 96 well plate (Thermo Fisher Scientific, Waltham, USA) incubated for about 18 h in a humidity incubator at 37° C.
30 μl of this starter culture were added to 600 μl LB medium containing 100 μg/ml ampicillin and 150 mM Hepes (Merck, Darmstadt, Germany) as inoculum for the expression culture in 96 well plates (2 ml deep wells; HJ Bioanalytik, Erkelenz, Germany) The plates were sealed by an aluminium foil, and cells were incubated for 5 h at 37° C. on a plate shaker at 750 rpm. The expression was induced by addition of IPTG in a final concentration of 1 mM followed by further sealed incubation for about 18 h at 30° C. on a plate shaker at 750 rpm.
Cells were harvested by centrifugation at 4° C., 2500 g for 15 min discarding the supernatant. Cell pellets were stored at −80° C. and lysed in 250 μl 1× BugBuster® (Merck, Darmstadt, Germany) in 140 mM Tris (pH 7.8), with 1:25000 diluted BNase® (Qiagen, Hilden, Germany) by incubation of the resuspended cells for 30 min at 4° C. and 1000 rpm. Lysates were clarified by centrifugation for 15 min at 4° C., 2500 g, and 150 μl supernatant were transferred in standard 96 well plate (Thermo Fisher Scientific, Waltham, USA) for subsequent testing in quadruplets.
The activity of HPPD polypeptides was determined in absence or presence of HPPD inhibitors using the coupled HPPD activity assay (FIG. 1).
For the determination of the residual activity, the apparent kinetic constant (kapp) of the determined substrate conversion was measured as kinetic changes in absorbance at 320 nm in a coupled assay, in that homogentisate (HGA) formed by HPPD from HPP is directly converted into the well absorbing molecule maleylacetoacetate (MAA) by a second enzyme homogentisate dioxygenase (HGD), applied in excess uniformly in all assays (see FIG. 1). The measurements were performed in 384 micro titer plates (Greiner Bio-One GmbH, Frickenhausen, Germany) by plate readers (Tecan infinite M1000 or M1000PRO, Tecan, Männedorf, Switzerland). The kcat/kM ratio of an enzymatic activity is proportional to the apparent kinetic constant kapp and is proportional to kcat/kM*[E] ([E]=enzyme concentration). […] As both kapp measurements in the presence and absence of inhibitor were performed by use of the identical enzyme sample, crude or purified, and thereby at the same enzyme concentration, the enzyme concentration eliminates from the calculation of residual activity and the ratio of both kapp directly indicates the change of kM due to the inhibition.
Regarding B1, the Residual activity is reported as 39%.

With B10, the Residual activity is on record as 41%.

For the molecule B12, the Residual activity worked out at 27%.

The series is the same for the next values; noted with them: in the presence of Cmpd. 1, 15 μM inhibitor, high substrate concentration; total change in signal normalized to no inhibitor.
Consider B1, for which the Residual turnover was determined as 65%.

As to B10, the Residual turnover is 66%.

On to B12, for which the Residual turnover came out at 38%.

The same series, now with this note: in the presence of Cmpd. 2, 15 μM inhibitor, high substrate concentration; kapp normalized to kapp without inhibitor.
For the molecule B1, the Residual activity is listed as 95%.

For the molecule B10, the Residual activity was found to be 89%.

As to B12, the Residual activity came out at 75%.

The same series, now with this note: in the presence of Cmpd. 2, 15 μM inhibitor, high substrate concentration; total change in signal normalized to no inhibitor.
With B1, the Residual turnover entry is “n.i”.

On to B10, for which the Residual turnover entry is on record as “n.i”.

In the case of B12, the Residual turnover turned out to be 83%.

The same series, now with this note: in the presence of diketonitrile (DKN), 60 μM inhibitor, high substrate concentration; kapp normalized to kapp without inhibitor.
For B1, the Residual activity entry is reported as “n.i. (no inhibition was observed under the given conditions)”.

As for B10, the Residual activity result is reported as “n.i. (no inhibition was observed under the given conditions)”.

In the case of B12, the Residual activity is 79%.

The series is the same for the next values; noted with them: in the presence of diketonitrile (DKN), 60 μM inhibitor, high substrate concentration; total change in signal normalized to no inhibitor.
Regarding B1, the Residual turnover entry is on record as “n.i”.

Consider B10, for which the Residual turnover entry is “n.i”.

Turning to B12, the Residual turnover came to 92%.

Still in this series, the particulars now being: in the presence of mesotrione (MST), 60 μM inhibitor, high substrate concentration; kapp normalized to kapp without inhibitor.
Regarding B1, the Residual activity is 87%.

Take B10: the Residual activity was determined as 82%.

With B12, the Residual activity was 70%.

Still in this series, the particulars now being: in the presence of mesotrione (MST), 60 μM inhibitor, high substrate concentration; total change in signal normalized to no inhibitor.
Consider B1, for which the Residual turnover entry is “n.i”.

Consider B10, for which the Residual turnover entry was “n.i”.

As for B12, the Residual turnover came to 85%.

Still in this series, the particulars now being: kapp in presence of 50 μM Cmpd. 1, normalised to kapp without inhibitor; low substrate concentration.
In the case of B2, the Residual activity worked out at 73%.

B3: the Residual activity is 17%.

As for B4, the Residual activity stood at 34%.

Turning to B5, the Residual activity is on record as 25%.

Take B6: the Residual activity was determined as 23%.

Turning to B7, the Residual activity amounted to 65%.

Consider B8, for which the Residual activity stood at 19%.

B9: the Residual activity came out at 58%.

For the molecule B11, the Residual activity is recorded as 23%.

For the molecule B13, the Residual activity is on record as 20%.

Turning to B14, the Residual activity is on record as 61%.

The series is the same for the next values; noted with them: total change in signal in presence of 50 μM Cmpd. 1, normalised to that without inhibitor; low substrate concentration.
Consider B2, for which the Residual turnover is listed as 96%.

For the molecule B3, the Residual turnover is 53%.

B4: the Residual turnover was determined as 61%.

Turning to B5, the Residual turnover is reported as 55%.

Consider B6, for which the Residual turnover is listed as 45%.

With B7, the Residual turnover worked out at 77%.

In the case of B8, the Residual turnover is reported as 46%.

B9: the Residual turnover amounted to 78%.

On to B11, for which the Residual turnover is 43%.

With B13, the Residual turnover was determined as 44%.

As to B14, the Residual turnover is listed as 81%.

The values above are taken from patent US10597674B2, “HPPD variants and methods of use” (BASF Agricultural Solutions Seed, US LLC, priority 2015, dated 2020).
